This passage reports IC50 (µM), hCAII functional assay and IC50 (inhibition of pNPA hydrolysis, colorimetric assay) results from US20220283175A1, “METALLOENZYMES FOR BIOMOLECULAR RECOGNITION OF N-TERMINAL MODIFIED PEPTIDES” (Encodia, Inc., priority 2020, published 2022).

Some targets named below: M64-LAEIR; M64-AAEIR; M64-EAEIR; M64-DAEIR; M64-FAEIR.
Common to all, as to experiment: cell-based or functional assay
The target of assay [1] is wild-type human carbonic anhydrase II (hCAII) protein (human) (UniProt P00918).

The substance FAAAE (peptide) gave an IC50 (µM), hCAII functional assay in assay [1] of 152 µM.

In the case of “SEQ ID NO: 58 (wild-type hCAI according to the heading of Table 11) (from UniProt P00915 5-261) (enzyme)”, the IC50 (inhibition of pNPA hydrolysis, colorimetric assay) with M64-LAEIR worked out at 0.016 µM; with M64-AAEIR, 0.109 µM; with M64-EAEIR, 1.09 µM; in the assay with M64-DAEIR, 0.136 µM; with M64-FAEIR, 0.012 µM.
